Experimental findings from patent US20180140673A1 are described below.

Experiment [1] has as its target FGF receptor/BKL complex on HEK293 cells overexpressing human beta-klotho (BKL) (human) (UniProt Q86Z14). Description: cell-based or functional assay.
The target in experiment [2] is FGFR1c receptor/BKL complex on differentiated mouse 3T3-L1 adipocytes (mouse) (UniProt P16092). Kind of experiment: cell-based or functional assay.
Sequence of FGFR1c receptor/BKL complex on differentiated mouse 3T3-L1 adipocytes (mouse) (P16092 22-822, chain 1 of 2): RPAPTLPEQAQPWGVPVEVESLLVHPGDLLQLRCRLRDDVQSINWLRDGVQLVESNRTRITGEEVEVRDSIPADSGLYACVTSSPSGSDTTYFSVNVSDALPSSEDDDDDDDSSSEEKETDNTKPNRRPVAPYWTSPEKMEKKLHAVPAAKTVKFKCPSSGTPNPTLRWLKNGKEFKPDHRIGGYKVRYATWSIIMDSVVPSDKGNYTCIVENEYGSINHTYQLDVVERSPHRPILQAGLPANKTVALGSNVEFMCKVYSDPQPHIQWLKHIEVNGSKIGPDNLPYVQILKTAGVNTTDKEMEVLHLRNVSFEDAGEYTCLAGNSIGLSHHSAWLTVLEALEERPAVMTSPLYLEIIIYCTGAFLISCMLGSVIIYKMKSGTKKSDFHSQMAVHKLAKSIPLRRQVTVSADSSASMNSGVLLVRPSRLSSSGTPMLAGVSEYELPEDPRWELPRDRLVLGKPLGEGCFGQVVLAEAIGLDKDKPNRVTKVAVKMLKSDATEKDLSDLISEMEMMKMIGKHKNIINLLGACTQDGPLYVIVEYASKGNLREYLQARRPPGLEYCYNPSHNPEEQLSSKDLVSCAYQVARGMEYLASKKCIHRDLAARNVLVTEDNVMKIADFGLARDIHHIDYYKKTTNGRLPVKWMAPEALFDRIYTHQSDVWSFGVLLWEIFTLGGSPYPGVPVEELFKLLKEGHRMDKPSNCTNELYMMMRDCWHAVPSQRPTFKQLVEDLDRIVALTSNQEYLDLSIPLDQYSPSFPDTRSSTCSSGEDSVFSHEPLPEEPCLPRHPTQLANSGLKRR
Sequence of FGFR1c receptor/BKL complex on differentiated mouse 3T3-L1 adipocytes (mouse) (Q99N32 whole entry, chain 2 of 2, further chain): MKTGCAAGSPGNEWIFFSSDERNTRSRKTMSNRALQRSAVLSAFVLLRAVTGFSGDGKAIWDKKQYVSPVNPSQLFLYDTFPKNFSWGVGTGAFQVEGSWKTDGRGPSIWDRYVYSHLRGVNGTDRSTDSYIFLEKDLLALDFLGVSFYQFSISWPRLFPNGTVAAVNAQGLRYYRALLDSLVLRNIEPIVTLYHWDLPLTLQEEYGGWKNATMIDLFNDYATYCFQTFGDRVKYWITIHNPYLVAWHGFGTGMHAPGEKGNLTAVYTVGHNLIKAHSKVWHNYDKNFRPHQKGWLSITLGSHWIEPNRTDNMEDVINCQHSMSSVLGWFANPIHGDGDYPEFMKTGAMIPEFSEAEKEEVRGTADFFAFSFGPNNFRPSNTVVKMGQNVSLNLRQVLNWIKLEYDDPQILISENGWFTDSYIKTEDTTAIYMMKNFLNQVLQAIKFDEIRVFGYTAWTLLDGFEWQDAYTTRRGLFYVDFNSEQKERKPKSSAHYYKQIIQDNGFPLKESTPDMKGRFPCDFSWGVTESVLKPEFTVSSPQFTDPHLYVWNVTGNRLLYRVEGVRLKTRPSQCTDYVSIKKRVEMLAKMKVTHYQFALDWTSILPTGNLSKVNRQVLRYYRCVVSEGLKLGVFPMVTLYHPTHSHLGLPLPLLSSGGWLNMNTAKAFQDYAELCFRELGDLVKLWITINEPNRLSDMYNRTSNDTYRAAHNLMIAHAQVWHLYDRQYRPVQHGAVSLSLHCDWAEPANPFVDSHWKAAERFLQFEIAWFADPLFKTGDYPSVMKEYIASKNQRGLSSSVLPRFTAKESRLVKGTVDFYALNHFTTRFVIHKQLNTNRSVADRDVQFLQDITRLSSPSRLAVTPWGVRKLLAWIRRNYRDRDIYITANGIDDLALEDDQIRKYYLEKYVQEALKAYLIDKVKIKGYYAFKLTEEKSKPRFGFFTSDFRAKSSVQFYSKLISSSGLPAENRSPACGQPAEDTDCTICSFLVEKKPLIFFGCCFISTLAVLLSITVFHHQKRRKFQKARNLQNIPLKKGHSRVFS

Sequence of FGF receptor/BKL complex on HEK293 cells overexpressing human beta-klotho (BKL) (human) (Q86Z14 whole entry, one chain of several): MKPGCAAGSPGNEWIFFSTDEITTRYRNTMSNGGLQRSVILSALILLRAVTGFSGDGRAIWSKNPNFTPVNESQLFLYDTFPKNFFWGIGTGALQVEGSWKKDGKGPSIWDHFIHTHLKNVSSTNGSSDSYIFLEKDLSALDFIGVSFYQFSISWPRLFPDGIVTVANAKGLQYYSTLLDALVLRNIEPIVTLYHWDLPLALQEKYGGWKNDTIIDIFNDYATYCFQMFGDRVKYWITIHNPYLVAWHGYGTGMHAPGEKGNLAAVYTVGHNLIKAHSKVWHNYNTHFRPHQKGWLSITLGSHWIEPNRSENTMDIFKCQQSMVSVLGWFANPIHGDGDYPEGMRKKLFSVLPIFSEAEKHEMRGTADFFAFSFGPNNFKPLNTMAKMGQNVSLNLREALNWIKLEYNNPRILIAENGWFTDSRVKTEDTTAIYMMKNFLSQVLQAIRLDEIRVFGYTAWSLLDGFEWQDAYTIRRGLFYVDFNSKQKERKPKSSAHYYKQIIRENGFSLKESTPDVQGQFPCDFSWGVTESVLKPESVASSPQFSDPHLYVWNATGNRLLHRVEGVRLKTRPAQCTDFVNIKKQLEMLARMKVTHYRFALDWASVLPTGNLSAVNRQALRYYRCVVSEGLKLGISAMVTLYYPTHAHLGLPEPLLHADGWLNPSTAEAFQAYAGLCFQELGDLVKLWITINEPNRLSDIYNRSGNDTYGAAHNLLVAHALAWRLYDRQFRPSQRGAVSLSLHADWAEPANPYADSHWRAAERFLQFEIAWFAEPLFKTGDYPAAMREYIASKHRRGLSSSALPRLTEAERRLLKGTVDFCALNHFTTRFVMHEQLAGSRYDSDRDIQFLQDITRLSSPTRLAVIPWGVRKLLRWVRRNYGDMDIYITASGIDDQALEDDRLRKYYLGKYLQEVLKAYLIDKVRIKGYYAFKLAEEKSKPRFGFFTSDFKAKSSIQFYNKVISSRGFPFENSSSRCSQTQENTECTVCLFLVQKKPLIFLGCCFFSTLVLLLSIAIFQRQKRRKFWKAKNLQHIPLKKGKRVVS
Sequence of S{Beta-176}-2-aminoethylsulfanyl-Ala[Gln121,Leu168,Cys176]FGF21 (Q9NSA1 other isoform, or with tags, fused parts or gaps limits assumed): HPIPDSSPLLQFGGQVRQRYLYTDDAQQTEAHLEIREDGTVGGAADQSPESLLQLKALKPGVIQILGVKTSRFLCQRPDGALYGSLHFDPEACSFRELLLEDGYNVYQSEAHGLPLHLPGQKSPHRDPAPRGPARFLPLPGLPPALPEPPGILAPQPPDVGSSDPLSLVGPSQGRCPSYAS
Sequence of S{Beta-179}-2-aminoethylsulfanyl-Ala[Gln121,Leu168,Cys179]FGF21 (Q9NSA1 other isoform, or with tags, fused parts or gaps limits assumed): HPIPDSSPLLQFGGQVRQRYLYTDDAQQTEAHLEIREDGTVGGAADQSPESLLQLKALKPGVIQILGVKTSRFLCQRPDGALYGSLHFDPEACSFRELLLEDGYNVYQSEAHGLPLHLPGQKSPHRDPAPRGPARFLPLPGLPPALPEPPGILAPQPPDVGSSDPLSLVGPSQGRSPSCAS

On to “S{Beta-180}-[2-[2-[[2-[2-[2-[[2-[2-[2-[[(4S)-4-carboxy-4-(19-carboxynonadecanoyl-amino)butanoyl]amino]ethoxy]ethoxy]acetyl]amino]ethoxy]ethoxy]acetyl]amino]-ethylamino]-2-oxoethyl]-Ala[Gln121,Leu168,Cys180]FGF21 (from UniProt Q9NSA1 29-209) (ligand)”, for which, in experiment [1], the EC50 (0.1% HSA) (nM), pERK, HEK293/BKL cells came out at 133 nM and the EC50 (nM), pERK, HEK293/BKL cells was 5 nM. Also, in experiment [2], the Glucose uptake EC50 (nM), 3T3-L1 adipocytes is 24 nM and the Glucose uptake Emax (%), 3T3-L1 adipocytes came to 53%.

In experiment [1], “{Beta-178}-[2-[2-[[2-[2-[2-[[2-[2-[2-[[(4S)-4-carboxy-4-(15-carboxypentadecanoyl-amino)butanoyl]amino]ethoxy]ethoxy]acetyl]amino]ethoxy]ethoxy]acetyl]amino]-ethylamino]-2-oxoethyl]-Ala[Gln121,Leu168,Cys178]FGF21 (from UniProt Q9NSA1 29-209) (ligand)” displayed an EC50 (0.1% HSA) (nM), pERK, HEK293/BKL cells of 137 nM and an EC50 (nM), pERK, HEK293/BKL cells of 167 nM. Also, in experiment [2], the Glucose uptake EC50 (nM), 3T3-L1 adipocytes was determined as 186 nM and the Glucose uptake Emax (%), 3T3-L1 adipocytes was found to be 59%.

On to “S{Beta-176}-2-aminoethylsulfanyl-Ala[Gln121,Leu168,Cys176]FGF21 (from UniProt Q9NSA1 29-209) (ligand)”, for which, in experiment [1], the EC50 (nM), pERK, HEK293/BKL cells is 227 nM. In addition, in experiment [2], the Glucose uptake EC50 (nM), 3T3-L1 adipocytes is 73 nM and the Glucose uptake Emax (%), 3T3-L1 adipocytes stood at 84%.

Regarding “S{Beta-179}-2-aminoethylsulfanyl-Ala[Gln121,Leu168,Cys179]FGF21 (from UniProt Q9NSA1 29-209) (ligand)”, the EC50 (nM), pERK, HEK293/BKL cells in experiment [1] was 69 nM. In experiment [2], this substance returned a Glucose uptake EC50 (nM), 3T3-L1 adipocytes of 25 nM and a Glucose uptake Emax (%), 3T3-L1 adipocytes of 77%.

For the substance “S{Beta-180}-[2-[2-[[2-[2-[2-[[2-[2-[2-[[(4S)-4-carboxy-4-(17-carboxyheptadecanoyl-amino)butanoyl]amino]ethoxy]ethoxy]acetyl]amino]ethoxy]ethoxy]acetyl]amino]-ethylamino]-2-oxoethyl]-Ala[Gln121,Leu168,Cys180,des181]FGF21 (from UniProt Q9NSA1 29-207) (ligand)”, in experiment [1], the EC50 (0.1% HSA) (nM), pERK, HEK293/BKL cells was 20 nM and the EC50 (nM), pERK, HEK293/BKL cells was 8 nM. In experiment [2], this substance displayed a Glucose uptake EC50 (nM), 3T3-L1 adipocytes of 8 nM and a Glucose uptake Emax (%), 3T3-L1 adipocytes of 71%.
